What was measured:
[1] = molecular target: ROR1 on JIMT-1 and A549 target cells (UniProt Q01973 30-937, limits assumed); experiment: cell-based or functional assay
[2] = molecular target: T1, CD8 on human T cells (PBMC) (human, UniProt P01732 22-235); experiment: flow cytometry on human PBMC gated CD5+/CD4- (cells carry CD8 and CD3), detection with anti-human Fc-PE
T1 construct: whole, on cells; The CD8+ (CD5+ CD4-) cells also carry CD3; also called CD5+ CD4- gated PBMC; CD8+ T cells

[3] = molecular target: T2, B7-H3 on A498 and JIMT-1 target cells (UniProt Q5ZPR3 29-534, limits assumed); experiment: cell-based or functional assay
T2 sequence (looked up): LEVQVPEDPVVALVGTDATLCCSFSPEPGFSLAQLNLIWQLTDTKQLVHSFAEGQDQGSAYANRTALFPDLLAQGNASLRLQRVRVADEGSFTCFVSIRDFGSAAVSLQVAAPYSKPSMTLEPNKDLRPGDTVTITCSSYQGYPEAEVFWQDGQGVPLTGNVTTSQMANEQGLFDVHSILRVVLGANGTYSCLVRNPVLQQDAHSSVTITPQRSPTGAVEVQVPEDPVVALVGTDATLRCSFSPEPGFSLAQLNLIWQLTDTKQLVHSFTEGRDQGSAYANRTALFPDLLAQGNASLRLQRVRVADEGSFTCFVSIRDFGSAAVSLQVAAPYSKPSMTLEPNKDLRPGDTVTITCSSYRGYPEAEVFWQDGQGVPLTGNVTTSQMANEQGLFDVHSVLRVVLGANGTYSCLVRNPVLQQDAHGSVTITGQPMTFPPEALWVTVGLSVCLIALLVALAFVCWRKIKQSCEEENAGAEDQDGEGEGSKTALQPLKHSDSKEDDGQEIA

T1 sequence (P01732 22-235): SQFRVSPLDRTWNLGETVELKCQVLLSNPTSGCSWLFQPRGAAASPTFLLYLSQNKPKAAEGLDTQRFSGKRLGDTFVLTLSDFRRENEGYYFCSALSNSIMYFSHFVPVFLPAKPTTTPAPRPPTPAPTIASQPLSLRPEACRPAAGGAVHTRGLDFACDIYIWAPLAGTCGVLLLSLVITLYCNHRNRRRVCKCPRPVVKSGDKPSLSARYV

B1: ROR1 mAb 1/CD3 mAb 2/CD8 mAb 2 Tri-Specific Binding Molecule (other)
chain 1: QLVLTQSPSASASLGSSVKLTCTLSSGHKTDTIDWYQQQPGKAPRYLMKLEGSGSYNKGSGVPDRFGSGSSSGADRYLTISSLQSEDEADYYCGTDYPGNYLFGGGTQLTVLGGGGSGGGGEVQLVESGGGLVQPGGSLRLSCAASGFTFSTYAMNWVRQAPGKGLEWVGRIRSKYNNYATYYADSVKGRFTISRDDSKNSLYLQMNSLKTEDTAVYYCVRHGNFGNSYVSWFAYWGQGTLVTVSSGGCGGGEVAALEKEVAALEKEVAALEKEVAALEKGGGDKTHTCPPCPAPEAAGGPSVFLFPPKPKDTLMISRTPEVTCVVVDVSHEDPEVKFNWYVDGVEVHNAKTKPREEQYNSTYRVVSVLTVLHQDWLNGKEYKCKVSNKALPAPIEKTISKAKGQPREPQVYTLPPSREEMTKNQVSLWCLVKGFYPSDIAVEWESNGQPENNYKTTPPVLDSDGSFFLYSKLTVDKSRWQQGNVFSCSVMHEALHNHYTQKSLSLSPGK
chain 2: QAVVTQEPSLTVSPGGTVTLTCRSSTGAVTTSNYANWVQQKPGQAPRGLIGGTNKRAPWTPARFSGSLLGGKAALTITGAQAEDEADYYCALWYSNLWVFGGGTKLTVLGGGGSGGGGQEQLVESGGGLVQPGGSLRLSCAASGFTFSDYYMSWVRQAPGKGLEWVATIYPSSGKTYYADSVKGRFTISSDNAKNSLYLQMNSLRAEDTAVYYCARDSYADDAALFDIWGQGTTVTVSSGGCGGGKVAALKEKVAALKEKVAALKEKVAALKE
heavy: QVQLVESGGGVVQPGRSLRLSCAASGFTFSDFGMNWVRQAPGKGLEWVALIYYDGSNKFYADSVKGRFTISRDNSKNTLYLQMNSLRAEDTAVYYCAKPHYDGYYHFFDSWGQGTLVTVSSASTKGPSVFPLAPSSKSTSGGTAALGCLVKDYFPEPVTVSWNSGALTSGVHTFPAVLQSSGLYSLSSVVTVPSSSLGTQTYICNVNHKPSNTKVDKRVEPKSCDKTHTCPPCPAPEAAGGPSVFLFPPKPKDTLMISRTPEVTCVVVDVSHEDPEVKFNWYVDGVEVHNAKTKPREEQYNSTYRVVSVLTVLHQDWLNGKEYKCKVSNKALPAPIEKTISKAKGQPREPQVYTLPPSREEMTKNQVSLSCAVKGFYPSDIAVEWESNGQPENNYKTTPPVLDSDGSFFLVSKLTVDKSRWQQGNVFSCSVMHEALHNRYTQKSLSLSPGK
light: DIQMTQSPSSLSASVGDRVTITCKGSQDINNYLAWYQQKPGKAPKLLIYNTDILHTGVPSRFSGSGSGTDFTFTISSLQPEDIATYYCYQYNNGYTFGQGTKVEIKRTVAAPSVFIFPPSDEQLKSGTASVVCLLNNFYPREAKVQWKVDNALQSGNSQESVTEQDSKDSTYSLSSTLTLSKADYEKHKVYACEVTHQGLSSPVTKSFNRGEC
EC50 (nM) of killing, CD4+ effector cells, JIMT1-luc target cells, E:T 5:1 [1]: 0.277 nM | EC50 (nM) of killing, CD8+ effector cells, JIMT1-luc target cells, E:T 5:1 [1]: 0.0021 nM | EC50 (nM) of killing, PanT effector cells, JIMT1-luc target cells, E:T 5:1 [1]: 0.0057 nM

B2: 5T4 mAb 1/CD3 mAb 2 Low/CD8 mAb 1 Tri-Specific Binding Molecule (other)
chain 1: DIQMTQSPSSLSASVGDRVTITCRASQGISNYLAWFQQKPGKAPKSLIYRANRLQSGVPSRFSGSGSGTDFTLTISSLQPEDVATYYCLQYDDFPWTFGQGTKLEIKGGGSGGGGEVQLVESGGGLVQPGGSLRLSCAASGFTFSTYAMNWVRQAPGKGLEWVGRIRSKYNNYATYYADSVKGRFTISRDDSKNSLYLQMNSLKTEDTAVYYCVRHGNFGNSYVTWFAYWGQGTLVTVSSASTKGEVAACEKEVAALEKEVAALEKEVAALEKGGGDKTHTCPPCPAPEAAGGPSVFLFPPKPKDTLMISRTPEVTCVVVDVSHEDPEVKFNWYVDGVEVHNAKTKPREEQYNSTYRVVSVLTVLHQDWLNGKEYKCKVSNKALPAPIEKTISKAKGQPREPQVYTLPPSREEMTKNQVSLWCLVKGFYPSDIAVEWESNGQPENNYKTTPPVLDSDGSFFLYSKLTVDKSRWQQGNVFSCSVMHEALHNHYTQKSLSLSPGK
chain 2: QAVVTQEPSLTVSPGGTVTLTCRSSTGAVTTSNYANWVQQKPGQAPRGLIGGTNKRAPWTPARFSGSLLGGKAALTITGAQAEDEADYYCALWYSNLWVFGGGTKLTVLGGGGSGGGGQVQLVQSGAEVKKPGASVKVSCKASGYTFTSFWMHWVRQAPGQGLEWMGRIDPNRGGTEYNEKAKSRVTMTADKSTSTAYMELSSLRSEDTAVYYCAGGNPYYPMDYWGQGTTVTVSSASTKGKVAACKEKVAALKEKVAALKEKVAALKE
heavy: EVQLQQSGAELVKPGASVKLSCTASGFNIKDTYIHFVRQRPEQGLEWIGRIDPANDNTLYASKFQGKATITADTSSNTAYMHLCSLTSGDTAVYYCGRGYGYYVFDHWGQGTTLTVSSASTKGPSVFPLAPSSKSTSGGTAALGCLVKDYFPEPVTVSWNSGALTSGVHTFPAVLQSSGLYSLSSVVTVPSSSLGTQTYICNVNHKPSNTKVDKRVEPKSCDKTHTCPPCPAPEAAGGPSVFLFPPKPKDTLMISRTPEVTCVVVDVSHEDPEVKFNWYVDGVEVHNAKTKPREEQYNSTYRVVSVLTVLHQDWLNGKEYKCKVSNKALPAPIEKTISKAKGQPREPQVYTLPPSREEMTKNQVSLSCAVKGFYPSDIAVEWESNGQPENNYKTTPPVLDSDGSFFLVSKLTVDKSRWQQGNVFSCSVMHEALHNRYTQKSLSLSPGK
light: DVQINQSPSFLAASPGETITINCRTSRSISQYLAWYQEKPGKTNKLLIYSGSTLQSGIPSRFSGSGSGTDFTLTISGLEPEDFAMYYCQQHNENPLTFGAGTKLELRRTVAAPSVFIFPPSDEQLKSGTASVVCLLNNFYPREAKVQWKVDNALQSGNSQESVTEQDSKDSTYSLSSTLTLSKADYEKHKVYACEVTHQGLSSPVTKSFNRGEC
EC50 (read off the curve) [2]: ~0.8 nM

B3: B7-H3 mAb 1/CD8 mAb 1/CD3 mAb 2 Tri-Specific Binding Molecule (other)
chain 1: DVQINQSPSFLAASPGETITINCRTSRSISQYLAWYQEKPGKTNKLLIYSGSTLQSGIPSRFSGSGSGTDFTLTISGLEPEDFAMYYCQQHNENPLTFGAGTKLELRGGGSGGGGQVQLVQSGAEVKKPGASVKVSCKASGYTFTSYWMQWVRQAPGQGLEWMGTIYPGDGDTRYTQKFKGRVTITADKSTSTAYMELSSLRSEDTAVYYCARRGIPRLWYFDVWGQGTTVTVSSGGCGGGEVAALEKEVAALEKEVAALEKEVAALEKGGGDKTHTCPPCPAPEAAGGPSVFLFPPKPKDTLMISRTPEVTCVVVDVSHEDPEVKFNWYVDGVEVHNAKTKPREEQYNSTYRVVSVLTVLHQDWLNGKEYKCKVSNKALPAPIEKTISKAKGQPREPQVYTLPPSREEMTKNQVSLWCLVKGFYPSDIAVEWESNGQPENNYKTTPPVLDSDGSFFLYSKLTVDKSRWQQGNVFSCSVMHEALHNHYTQKSLSLSPGK
chain 2: DIQMTQSPSSLSASVGDRVTITCRASQDISNYLNWYQQKPGKAPKLLIYYTSRLHSGVPSRFSGSGSGTDFTLTISSLQPEDIATYYCQQGNTLPPTFGGGTKLEIKGGGSGGGGEVQLQQSGAELVKPGASVKLSCTASGFNIKDTYIHFVRQRPEQGLEWIGRIDPANDNTLYASKFQGKATITADTSSNTAYMHLCSLTSGDTAVYYCGRGYGYYVFDHWGQGTTLTVSSGGCGGGKVAALKEKVAALKEKVAALKEKVAALKE
heavy: EVQLVESGGGLVQPGGSLRLSCAASGFTFSTYAMNWVRQAPGKGLEWVGRIRSKYNNYATYYADSVKDRFTISRDDSKNSLYLQMNSLKTEDTAVYYCVRHGNFGNSYVSWFAYWGQGTLVTVSSASTKGPSVFPLAPSSKSTSGGTAALGCLVKDYFPEPVTVSWNSGALTSGVHTFPAVLQSSGLYSLSSVVTVPSSSLGTQTYICNVNHKPSNTKVDKRVEPKSCDKTHTCPPCPAPEAAGGPSVFLFPPKPKDTLMISRTPEVTCVVVDVSHEDPEVKFNWYVDGVEVHNAKTKPREEQYNSTYRVVSVLTVLHQDWLNGKEYKCKVSNKALPAPIEKTISKAKGQPREPQVYTLPPSREEMTKNQVSLSCAVKGFYPSDIAVEWESNGQPENNYKTTPPVLDSDGSFFLVSKLTVDKSRWQQGNVFSCSVMHEALHNRYTQKSLSLSPGK
light: QAVVTQEPSLTVSPGGTVTLTCRSSTGAVTTSNYANWVQQKPGQAPRGLIGGTNKRAPWTPARFSGSLLGGKAALTITGAQAEDEADYYCALWYSNLWVFGGGTKLTVLGRTVAAPSVFIFPPSDEQLKSGTASVVCLLNNFYPREAKVQWKVDNALQSGNSQESVTEQDSKDSTYSLSSTLTLSKADYEKHKVYACEVTHQGLSSPVTKSFNRGEC
EC50 (nM) of killing, CD4+ effector cells, JIMT1-luc target cells, E:T 5:1 [3]: 1.1 nM | EC50 (nM) of killing, CD8+ effector cells, JIMT1-luc target cells, E:T 5:1 [3]: 0.412 nM | EC50 (nM) of killing, PanT effector cells, JIMT1-luc target cells, E:T 5:1 [3]: 0.535 nM

— patent US20200207850A1 (MacroGenics, published 2020)
